Measured values as given in the nanobody polyreactivity screen of Harvey et al. (2022).

Test: yeast display, Sf9 membrane polyspecificity reagent, FACS + sequencing; frameworks hold sequencing errors
Summary of the method: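 Nanobodies came from a synthetic yeast display library in Saccharomyces cerevisiae BJ5465, induced with galactose for 36–48 hours and stained for 1 hour at 4 °C with 10% biotinylated, detergent-solubilized Sf9 membrane reagent. Cells were enriched on streptavidin microbeads and then FACS-sorted, with low and high (top ~1%) gates set on anti-HA fluorescence for expression and streptavidin fluorescence for reagent binding. Each polyreactivity label reflects the gate a clone came from. Genes were amplified by colony PCR, sequenced by MiSeq 2 × 250 and filtered by CDR length.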

| Sequence | polyreactivity (PSR sort gate) |
| --- | --- |
| QVQLVESGGGLVQAGCSLRLSCAASGFIFRLYTMGWYRQAPGKERELVARITRGDSTIYADSVKGRFTISRDNAKNTVYLQMNSLKPEDTAVYYCAKLHRGLPYYSFYRGYYYWGQGTQVTVSS | low polyreactivity |
| QVQLVESWGGLDQAGGSLRLSCAASGRNLYWNTMGWYRQPPGKETQLVASITQNVGSTYYADSVKGRFTISRDFAKNTVYLQMNSLKPEDTAVYDCAAKRLYWLRYGYWGQGTQDTVSS | low polyreactivity |
| QVQLVESGGGLVQAGGSLRLSCAASGRTFPRYGMGWYRQAPVKERELVATIRTGGRTNYADSVKGRFTISRDNAKNTVYVLMNSQKPEDTAVYYCATDSSKHPYSPTLLKFDYWGQGTQVTVSS | low polyreactivity |
| QVQLVESGGGLVQAGGSLRLRCAASGSIFYRNAMGWNRQAPGKERELVSANTRTGGSTYYADSVQARFTISRDNAKNTVYLQMNSLKPEDTAVYYCPAETWYRWPRSAWRFDYWGQGTQVNVSS | high polyreactivity |
| QVQLVESGGGLVQAGGSLRLSCAASGSTFHSYVMGWYRPAPGKERELVAAITSRGGSTNYADSFKGRFTISRDNAKNTVYLQLNSLKPEDTAVYYCAADVYLGWSYFRYDYWGQGTQVTVSS | low polyreactivity |
| QVQLVESGGGLVQAGGSLRLSCAASGSTFSRYAMGWYRQAPGKERELVAAISWSGGSTYYADSVKGRFTISRDTAKNTVYLQMNSLKPEDTAVYYCAAYTYSFRANHDYWGQGTQVTVSS | high polyreactivity |
| QVQLVESGGGLVHAGGSLRLSCAPSGFTLVSYAMGWHRKAPGKEREFDAGITDSGGSTYYADSVKGRYTITRDNAKNTFYLQMNSLKPVDTAVYYCKADFAPWDKQDYPYDYDYWGQGTQVTVSS | low polyreactivity |
| QVQLVESGGGLVQAGGSLRLSCAASGSIFPVYAMGWYRQAPGKERELVAAINSSGGSTYYADSVKWRFTISRDNAKNTVYLQMNSLKPEDTAVYYCAAEISTASYYAKTYDYWGQGTQVSVSS | low polyreactivity |
| QVQLVESGGGLVQAGGSLRLSCAASGRIFGKYVMGWYRQAPGKERELVAGISWSAGSTYYADSVKGRYTISRDNAKYTVYLQMNSLKPEDTAVYYCAAGLEGGYDYWGQGTQVTVSS | low polyreactivity |
| HVQLVESGGGLVQAGASLRLICAASGRIFWGYAMGWSRHAPGKERELVAGITYSGGSTYYADSVKGRFTISRDNAKNTVYLQMNSLKPEDTADYYCAAAKSYRSGSWYEYWGQGTQVTVSS | high polyreactivity |
| QVQLVESGGGLVQAGGSLRLSCAASGFTFAKNAMGWYRQAPGKERELVADITYSGGSTYADSVKGRFTISRDNAKNTVYLQMNSLKPEETAVYYCAADARRRSGYDYWGQGTQVSVSS | low polyreactivity |
| QVQLVESGGGLVQAGGSLRLSCAASGFIFRRYAMGWYRQAPGKERELVAAISRTGSTNYADSVKGRFTISRDNAKNTVYLKMNSLKPDDTAVYYCNARYITFNGYGYGYWGQGTQVTVSS | high polyreactivity |
| QVQLVESGGGLVQAGGSLRLSCAASGSNFYNNVMGWYRQAPGKERELVAAINSGGRTYYADSVKGRFTISRDNAKNTVYLQMNSLKPEDTAVYYCAVGYGRAARMDYWGQGTQVTVSS | high polyreactivity |
| QDQLVESGGGLVQAGGSLRLSCAASGSIFSNYAMGWYRQAPGKERELVATITSAGSTYYADSVKGRFTISRDNAKNTVYLQLNSLKPEDTAVYYCAALYLGSYDYYDDMDYWGQGTQVTVSS | low polyreactivity |
| QVQLVESGGGLVQAGGSLRLSCAASGFTFPYNAMGWYRQAPGKERELVAAISSGDSTYYADSVKGRFTISRDNAKNTVYLQMKSLKPEDTAVYYCDAYPSLYYTKYDYWGQGTQVTVSS | high polyreactivity |
| QVQLVESGGGLVQAGGSLRLSCAASGRTFSIYAMGWYRQAPGKERELVASITGRGGSTYYADSVKGRFTISRDNAKNTVYLQMNSLKPEDTAVYYCAADSYKPDGYRLRNDYWGQGTQVTVSS | high polyreactivity |
| QVQLVESGGGLVQAGGSLRLSCAASGSIFNYYAMGWYRQAPGKERELVAAITSADGRTFYADSVKGRFTISRDNANNTVYLQMNSLKPDDTAVYYCAAERTSRYSTYEYWGQGTQVTVSS | low polyreactivity |
| QVQLVESGGGLVQAGGSPRLSCAASGSIFSRNTMGWYRQAPGKERELVATITSGSNTNYADSVKGRFTISRDNAKNTVYLQMNSLKPEDTAVYYWGQGTQVTVSS | low polyreactivity |
| QVQLVESGGGLVQAGGSLRLSCAASGSTFVDNAMGWYRQAPGKERELVAAIRDGSGGSTRYADSVKGRFTISRDNAKNTVYLQMNSLKPEDTAVYYCAADGYITVNYLRYDYWGQGTQVTVSS | low polyreactivity |
| QVQLVESGGGLVQAGGSLRLSCAASGSTFVYYAMGWYRQAPGKEREFVATIYRGDNTNYADSVKGRFTISRDNAKNTVYLQMNSLKPEDTAVYYCAADEPKWDLGGGTYLRDYWGLGTQVTVSS | low polyreactivity |
| QVQLEESGGGLVQAGGSLRLSCAASGSTFHGYAMGWYRQEPGKERELVAAITSGDSTNYADSVKGRFTISRDNAKNTVYLQMNSLKPEDTAVYYCNAEGSSVLTGYWGYPPYWDTYDYWGQGTQVTVSS | low polyreactivity |
| QVQLVESGGGLVQAGGSLRLSCAASGNTLRPNGMGWYRQAPGKERELVAAISSGGSPYYADSVKGRFTISRDNAKNTVYLQMNSLKPEDTAVYYCAAEYWYDYWGQGTQVTVSS | low polyreactivity |

| Sequence | polyreactivity (PSR sort gate) |
| --- | --- |
| QVQLVESGGGLVQAGGSLRLICAASGYTLGPYAMGWYRQAPGKERELVAAITSGGSTYYADSVKGRFPISRDNAKHTVYLQMNSLKPEDSAVYYCNKDKGWLAHSRIWLWYDYWGQGTQVTVSS | low polyreactivity |
| QVQLVESGGGLVQAGGSLRLSCAASGFTFGGYAMGWYRQAPGKERELVAAITWSGGTTYYADSVKGRFTISRDNAKNTVYLQMNSLKPEDTAVYYCAAESTLPIIDRDDYWGQGSQVTVSS | low polyreactivity |
| QVQLVDSGGGLVQAGGSLRLSCGASGRIFPYNAMGWYRQAPGKERELVAAINWSGGSTYYADSVKGRFTISRDTAKNTVYLQMNSLKPEDTAVYYCAVKTVRSSSRNYWRQGTQVTVSS | high polyreactivity |
| QVQLVESGGGLVQAGGSLRLSCAASGSIFYPYAMGWYSQAPGKERELVAGISRSGASTYYADSVKGRFTISRDNAKNTVYLQMNSLKPEDTAVYYCAADDWTRNYWGQGTQVTVSS | low polyreactivity |
| QVQIVESGGGLFQAGGSLRLSSAASGNTFDKYAMGWYRQAPGKEREMVAAISSGGRTYYADSVKGRFTISRDNAKNTVYLQMNSLKPEDTAVYYCGKGSAGRGMDSWGQGTQVTVSS | low polyreactivity |
| QVQLVESGGGFVQAGGSLRLSCAASGRIIGYNAMAWYRQAPGKDRELVAAITTSGGSTYYADSVKGRFTISRDNAKNTVYLQMNSLKPEDTAFYYCARDSLQVFYAYASDDFWGQGTQVTVSS | low polyreactivity |
| QVQLVESGGGLVQAGGSLRLSCAASGSISSYYAMGWYRQATGKERELVAAISKSGGSTYYADSVKGRFTISRDNAKNTVYLQMNSLKPEDSAVYYCAARDYGWRYYRKYDYWGQGTQVTVSS | high polyreactivity |
| QVQLVESGGGLVQAGGSLRLSCAASGRIFVNNAMGWYRQAPGKEREFDATITSSGGRTYYADSVKGRFTISRDNAKYTVYLQMNSLKPEDTAVYYCAARPQNNGRNPVYRYNYWGQGTQVTVSS | high polyreactivity |
| QVQLVESGGGLVQAGGSLRLSCADSGFTFAANTMGWYRQAPGKARELVADISGRGDRTSYADSVKGRFTISRDNAKNTVYLQMNSLKPEDTAVYYCAVDIYYYSNVHYYYWGQGTQVTVSS | low polyreactivity |
| QVQLVESGGGLVQAGGSLRLSCAASGRNFVYNAMGWYRQAPGKERELVAAITWGGGSTYYADSVKGRFTISRDKAKNTVYLQMNSLKPEDTAVYYCAADGVRKFPNSRYDYWGQGTQVTVSS | low polyreactivity |
| QVQLVESGGGLVQAGGSLRLSCAASGRTFGANAMGWYRQAPGKERELVATIRRGGSTYYADSVKGRFTISRDNAKNTVYLLMNSLKPEDTAVYYCATQYHSYAKEYDYWGQGTQVTVSS | low polyreactivity |
| QVQLVESGGGLVQAGGSLRLSCAASGLIFPSYAMGWYRQAPGKERELVAGINSGGSTNYADSVKGRFTISRDNAKNTVYLQMNSLKPEDTAVYYCAKDNNYYWYVSPRDYWGQGTQVTVSS | low polyreactivity |
| QVQLVESGGGLVQAGGSLRLSCAASGSTFFRNAMGWYRQAPGKERELVAAITWSGGSTYYADSVKGRFTISRDNAKNTVYLQMNSLKPEDTAVYYCAAGLSYWTPHYYPFDYWGQGTQVTVSS | low polyreactivity |
| QVQLVESGGGLVQAGGSLRLSCAASGFTFGRNAMGWYRQAPGKERELVASIDWSGGSTYYADSVKGRFTISRDNAKNTVYLQMNSLIPEDTAVDYCAVGPNSVGNRSYGFDYWGQGTQVTVSS | low polyreactivity |
| QVQLVESGGGLVQAGGSHRLSCAASGFIFGINVMGWYRQAPGKERELVAAISGSGSSTYYADSVKGRFTISRDNAKNTVYLQMNSLKPEDTAVYYCAARSVSTLRFTSRKLRYDYWGQGTQVTVSS | high polyreactivity |
| QVQLVESGGGLVQAGGSLRLISAASGSSFSSYAMGWYRQAPGKERDLVAAISWRGGSTYYADSVKGRFTISRDNAKNTVYLQMNSLKTEDTAVYFCAKLVRGVGTEMYYWGQGTQVTVSS | high polyreactivity |
| QVQLVESGGGIVQAGGSLRLSCAASGFIFDVYAMGWYRQAPGKERELVAAISRSGGSTYYADSVKGRFTISRDNAKNTVYLQMNSLKPEDTAVYYCATDLLNNVDYDYWGQGTQVTVSS | low polyreactivity |
| QVQLVESGGGLVQAGGSLRLSCAASGRTYYYNAMGWYRQAPGKERELVAVISWDDGSTYYADSVKGRFTISRDKAMNSVYLQLNSLKPEDTAVYYCAAYDYLDYADDYWGQGTQVTVSS | low polyreactivity |
| QVQLVESGGGLVQAGGSLRLSCAASGSTINYNAMGWYRQAPGKERELVAAIDSGVSTNYADSVKGRFTISRDNAKNTVYFQMNSLKPEDTAVYYCNADPDYFDYWGQGTQVTVSS | low polyreactivity |
| QVQLVESGGGLVQAGGSLRLSCAASGRIFSGYAMGWDRQAPGKERELVAAISSTGGTYYADSVKGRFTISRDNAKNTVYLQMNSLKPEDTAVYYCAADTYGYQGSAGGHWGQGTQVTVSS | low polyreactivity |
| QVQLVESGGGLVHAGGSLRLSCAASGRTFKKYAMGLYRQAPGKERELVAAISWSGGTTYYADSVKGRFTISRDNAKNTVYLQMNSLKPEDTAVYYCAARVSRTGDGYYYYWGQGTQVTVSS | high polyreactivity |
